Numbered stars: 1 amine (or outer) side, 2 acyl side, 3 side chain; on linkers, the order of the positions; unused ones are H or OH. Square brackets hold non-standard residues; d marks the D form. Side chains are listed from the residue outwards. * marks the point of attachment. C20 diacid = O=C(O)CCCCCCCCCCCCCCCCCCC(=O)*; C18 diacid = O=C(O)CCCCCCCCCCCCCCCCC(=O)*; γGlu = O=C(O)[C@H](CCC(=O)[*:2])N[*:1]; Chem. 28 = not defined here; Chem. 29 = not defined here; AEEA = NCCOCCOCC(=O)O; Aib = CC(C)(N)C(=O)O
T1: human amylin-3(a) receptor (human, UniProt P30988 25-474; O60896 24-148)
T1 sequence (looked up) 1: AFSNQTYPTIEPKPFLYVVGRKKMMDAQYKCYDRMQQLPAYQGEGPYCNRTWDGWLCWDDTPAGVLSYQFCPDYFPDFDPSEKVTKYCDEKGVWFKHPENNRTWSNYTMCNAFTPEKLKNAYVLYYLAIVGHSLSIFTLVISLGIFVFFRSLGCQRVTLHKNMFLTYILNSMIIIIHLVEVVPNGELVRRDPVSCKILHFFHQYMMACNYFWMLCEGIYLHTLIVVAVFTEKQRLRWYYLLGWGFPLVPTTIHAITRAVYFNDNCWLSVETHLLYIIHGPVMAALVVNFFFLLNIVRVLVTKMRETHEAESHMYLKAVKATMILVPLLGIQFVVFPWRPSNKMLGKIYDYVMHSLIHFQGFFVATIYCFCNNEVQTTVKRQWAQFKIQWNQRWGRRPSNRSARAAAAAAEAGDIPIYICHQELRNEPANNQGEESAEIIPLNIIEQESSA
T1 sequence (looked up) 2: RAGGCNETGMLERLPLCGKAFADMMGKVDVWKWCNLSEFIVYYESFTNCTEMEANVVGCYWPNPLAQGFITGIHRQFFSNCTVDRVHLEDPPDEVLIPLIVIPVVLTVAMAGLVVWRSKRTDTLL

T2: human GIP receptor (human, UniProt P48546 22-466)
T2 sequence (looked up): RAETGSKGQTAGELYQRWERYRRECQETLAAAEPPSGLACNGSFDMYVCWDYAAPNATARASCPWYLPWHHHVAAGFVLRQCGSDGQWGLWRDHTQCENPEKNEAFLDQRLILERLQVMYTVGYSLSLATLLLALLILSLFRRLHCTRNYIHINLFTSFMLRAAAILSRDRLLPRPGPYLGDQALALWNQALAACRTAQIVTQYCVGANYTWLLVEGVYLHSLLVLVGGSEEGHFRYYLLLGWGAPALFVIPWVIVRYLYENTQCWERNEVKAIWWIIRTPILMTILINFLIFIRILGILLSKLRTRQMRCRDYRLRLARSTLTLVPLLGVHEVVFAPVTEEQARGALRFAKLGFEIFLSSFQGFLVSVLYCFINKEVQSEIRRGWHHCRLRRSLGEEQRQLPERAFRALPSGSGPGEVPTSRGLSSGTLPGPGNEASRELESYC

B1: Compound 100 (peptide)
peptide: H[Aib]HGTFTSDYSILLEEQAAREFIEWLLAGGPSK(Chem. 28)GAPPPSGGGEASHLSTAQTARLSAELHRLADLPRTETGSGSP-NH2
modifications: reading uncertain
B2: Compound 95 (peptide)
peptide: Y[Aib]EGTFTSDYSILLEEQAAREFIEWLLAGGPSGGGGEASHLSTAQTQRLSAELHK([AEEA-AEEA-γGlu-C18 diacid])LATLPRTETGSGSP-NH2
B3: Compound 91 (peptide)
peptide: H[Aib]HGTFTSDYSILLEEQAAREFIEWLLAGGPSSGAGQAPGQAPGASHLSTAQTQRLSAELHRLK([AEEA-AEEA-γGlu-C18 diacid])TLPRTETGSGSP-NH2
B4: Compound 98 (peptide)
peptide: Y[Aib]EGTFTSDYSILLEEQAAREFIEWLLAGGPSSGAGQAPGQAPLASHLSTAQTARLSAELHK([AEEA-AEEA-γGlu-C18 diacid])LATLPRTETGSGSP-NH2
B5: Compound 97 (peptide)
peptide: Y[Aib]EGTFTSDYSILLEEQAAREFIEWLLAGGPSSGAGQAPGASHLSTAQTQRLSAELHK([AEEA-AEEA-γGlu-C18 diacid])LATLPRTETGSGSP-NH2
B6: Compound 85 (peptide)
peptide: H[Aib]HGTFTSDYSILLEEQAAREFIEWLLAGGPSSGEASHLSTAQTQRLSAELHK([AEEA-AEEA-γGlu-C18 diacid])LATLPRTETGSGAP-NH2
B7: Compound 89 (peptide)
peptide: H[Aib]HGTFTSDYSILLEEQAAREFIEWLLAGGPSSGEASHLSTAALGRLSAELHRLK([AEEA-AEEA-γGlu-C18 diacid])TLPRTETGSGSP-NH2
B8: Compound 94 (peptide)
peptide: Y[Aib]EGTFTSDYSILLEEQAAREFIEWLLAGGPSRGEASHLSTAQTQRLSAELHK([AEEA-AEEA-γGlu-C20 diacid])LATLPRTETGSGSP-NH2
B9: Compound 90 (peptide)
peptide: H[Aib]HGTFTSDYSILLEEQAAREFIEWLLAGGPSSGEASHLSTAALGRLSAELHRLATLPK([AEEA-AEEA-γGlu-C18 diacid])TETGSGSP-NH2
B10: Compound 96 (peptide)
peptide: Y[Aib]EGTFTSDYSILLEEQAAREFIEWLLAGGPSGGGGEASHLSTAQTQRLSAELHK([AEEA-AEEA-γGlu-C20 diacid])LATLPRTETGSGSP-NH2
B11: Compound 10 (peptide)
peptide: Y[Aib]EGTFTSDYSILLEEQAAREFIEWLLAGGPSK(Chem. 29)GAPPPSGGGEASELSTAALGRLSAELHELATLPRTETGSGSP-NH2
modifications: reading uncertain
B12: Compound 99 (peptide)
peptide: Y[Aib]EGTFTSDYSILLEEQAAREFIEWLLAGGPSSGALQAPGQAPLASHLSTAQTQRLSAELHKLATLPRTETGSGSP-NH2
modifications: not fully specified (residue 62)
B13: Compound 92 (peptide)
peptide: H[Aib]HGTFTSDYSILLEEQAAREFIEWLLAGGPSSGAGQAPGQAPGASHLSTAQTQRLSAELHRLATLPK([AEEA-AEEA-γGlu-C18 diacid])TETGSGSP-NH2
B14: Compound 88 (peptide)
peptide: H[Aib]HGTFTSDYSILLEEQAAREFIEWLLAGGPSSGEASHLSTAALGRLSAELHK([AEEA-AEEA-γGlu-C18 diacid])LATLPRTETGSGSP-NH2
B15: Compound 86 (peptide)
peptide: H[Aib]HGTFTSDYSILLEEQAAREFIEWLLAGGPSK([AEEA-AEEA-γGlu-C18 diacid])GAPPPSGGGASELSTAALGRLSAELHRLATLPRTETGSGSP-NH2
B16: Compound 87 (peptide)
peptide: H[Aib]HGTFTSDYSILLEEQAAREFIEWLLAGGPSSGEASHLSTAALGRLSAK([AEEA-AEEA-γGlu-C18 diacid])LHRLATLPRTETGSGSP-NH2
B17: Compound 93 (peptide)
peptide: H[Aib]HGTFTSDYSILLEEQAAREFIEWLLAGGPSSGAGQAPGQAPLASHLSTAQTQRLSAELHK([AEEA-AEEA-γGlu-C18 diacid])LATLPRTETGSGSP-NH2

target: T1, human amylin-3(a) receptor; experiment: cell-based or functional assay

In order of rising “hAMYR3 Potency, 1% HSA, EC50 [pM]” value:
1. B3  28.8 pM
2. B16  36.5 pM
3. B7  39.7 pM
4. B15  58.4 pM
5. B17  66.4 pM
6. B13  75.1 pM
7. B14  102 pM
8. B4  108 pM
9. B12  129 pM
10. B5  132 pM
11. B11  175 pM
12. B9  183 pM
13. B1  210 pM
14. B2  233 pM
15. B6  250 pM
16. B8  377 pM
17. B10  595 pM

target: T2, human GIP receptor; experiment: cell-based or functional assay

In order of falling “hGIPR Potency, 1% HSA, EC50 [pM]” value:
1. B1  217 pM
2. B15  122 pM
3. B11  42.4 pM
4. B14  40.4 pM
5. B16  38.6 pM
6. B9  32.5 pM
7. B7  30.6 pM
8. B10  29.9 pM
9. B8  29.5 pM
10. B2  22.8 pM
11. B6  14.6 pM
12. B4  11.2 pM
13. B3  9.31 pM
14. B17  8.58 pM
15. B13  8.53 pM
16. B5  8.38 pM
17. B12  7.41 pM

target: T3, human GLP-1 receptor (human, UniProt P43220 24-463); experiment: cell-based or functional assay

In order of rising “hGLP-1R Potency, 1% HSA, EC50 [pM]” value:
1. B13  13.4 pM
2. B17  16.4 pM
3. B3  17.4 pM
4. B7  29.5 pM
5. B6  30.3 pM
6. B12  36.2 pM
7. B9  38.6 pM
8. B16  39.3 pM
9. B4  43.1 pM
10. B14  48.8 pM
11. B5  109 pM
12. B8  130 pM
13. B15  130 pM
14. B2  146 pM
15. B10  162 pM
16. B11  246 pM
17. B1  307 pM

target: T1, human amylin-3(a) receptor; experiment: cell-based or functional assay; remark: another data set of the same source

In order of falling “hAMYR3 Potency, no HSA, EC50 [pM]” value:
1. B11  6.8 pM
2. B9  5.45 pM
3. B16  4.99 pM
4. B6  4.4 pM
5. B8  3.91 pM
6. B2  3.76 pM
7. B10  3.73 pM
8. B14  3.7 pM
9. B15  3.31 pM
10. B7  3.12 pM
11. B1  3.05 pM
12. B12  2.82 pM
13. B5  2.81 pM
14. B13  2.64 pM
15. B4  2.3 pM
16. B3  2.26 pM
17. B17  2.23 pM

target: T2, human GIP receptor; experiment: cell-based or functional assay; remark: another data set of the same source

In order of rising “hGIPR Potency, no HSA, EC50 [pM]” value:
1. B12  2.09 pM
2. B11  2.11 pM
3. B5  2.3 pM
4. B17  2.54 pM
5. B4  2.58 pM
6. B6  2.71 pM
7. B8  2.9 pM
8. B13  3.12 pM
9. B2  3.13 pM
10. B3  3.21 pM
11. B10  3.62 pM
12. B1  3.95 pM
13. B15  5.11 pM
14. B9  5.4 pM
15. B14  5.68 pM
16. B7  6.47 pM
17. B16  7.26 pM

target: T3, human GLP-1 receptor; experiment: cell-based or functional assay; remark: another data set of the same source

In order of rising “hGLP-1R Potency, no HSA, EC50 [pM]” value:
1. B13  2.55 pM
2. B6  3.52 pM
3. B3  3.79 pM
4. B7  3.86 pM
5. B17  4.11 pM
6. B14  4.12 pM
7. B9  4.16 pM
8. B1  5.85 pM
9. B15  6.69 pM
10. B16  8.49 pM
11. B4  13.3 pM
12. B11  13.8 pM
13. B5  16.1 pM
14. B8  16.1 pM
15. B12  16.7 pM
16. B10  16.8 pM
17. B2  17.9 pM

From patent publication US20260174875A1 (Novo Nordisk A/S, priority 2023, published 2026)
